# Measurements reported in patent US20100036111.
# Where two headings read alike, the source gives them in different places.
# What was measured:
# [1] = target: Klenow fragment exo- (KF exo-) (UniProt P00582); conditions: n=Ds (7-(2-thienyl)-imidazo[4,5-b]pyridine); dPa'TP insertion Vmax/KM; 10 mM MgCl2 pH 7.5 37C
# [2] = target: Klenow fragment exo- (KF exo-) (UniProt P00582); conditions: n=Pa (pyrrole-2-carbaldehyde); dDsTP insertion; Vmax/KM as printed (KM 26 uM and Vmax 28 imply 1.1e6); 10 mM MgCl2 pH 7.5 37C
# [3] = target: Klenow fragment exo- (KF exo-) (UniProt P00582); conditions: n=Pa' (4-propynylpyrrole-2-carbaldehyde); dDsTP insertion Vmax/KM; 10 mM MgCl2 pH 7.5 37C
# Sequence of Klenow fragment exo- (KF exo-) (P00582 324-928): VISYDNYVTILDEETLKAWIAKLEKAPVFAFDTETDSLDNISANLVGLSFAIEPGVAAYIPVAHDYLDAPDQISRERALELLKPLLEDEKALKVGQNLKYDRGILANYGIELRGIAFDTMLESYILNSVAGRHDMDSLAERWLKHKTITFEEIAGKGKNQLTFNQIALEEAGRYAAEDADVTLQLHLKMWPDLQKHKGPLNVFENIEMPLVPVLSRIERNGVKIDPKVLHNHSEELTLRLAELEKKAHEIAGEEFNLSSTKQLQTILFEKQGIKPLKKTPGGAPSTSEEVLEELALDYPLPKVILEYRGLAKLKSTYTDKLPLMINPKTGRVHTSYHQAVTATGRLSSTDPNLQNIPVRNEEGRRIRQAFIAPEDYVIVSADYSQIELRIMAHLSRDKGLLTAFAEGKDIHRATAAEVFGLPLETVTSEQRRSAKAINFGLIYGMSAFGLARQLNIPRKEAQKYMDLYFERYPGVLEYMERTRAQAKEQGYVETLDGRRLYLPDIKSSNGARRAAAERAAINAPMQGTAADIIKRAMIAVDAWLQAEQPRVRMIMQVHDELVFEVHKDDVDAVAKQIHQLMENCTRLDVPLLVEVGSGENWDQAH
sequence,measurement,setting,value
AGCTCTNTCTTCCTCCCTATAGTGAGTCGTATTAT / ACTCACTATAGGGAGGAAGA [temp35Ds-1/primer],activity,[1],260000 %/min/M
TCGAGANAGAAGCTCCCTATAGTGAGTCGTATTAT / ACTCACTATAGGGAGCTTCT [temp35Pa-2/primer],activity,[2],11000 %/min/M
TCGAGANAGAAGCTCCCTATAGTGAGTCGTATTAT / ACTCACTATAGGGAGCTTCT [temp35Pa'-2/primer],activity,[3],880000 %/min/M
